± gives the standard error. Variants at the floor of the assay were thinned out.
B1: glmS ribozyme (parent)
chain: AUAAAAGCGCCAGAACUACAGAAAUGUAGUUGACGAGGAGGAGGUUUAUCGAAUUUUCGGCGGAUGCCUCCAAA

Experiments:
Conditions in all cases: with glucosamine-6-phosphate
glucosamine-6-phosphate [1] = variants of: B1; test: self-cleavage kobs at 160 uM GlcN6P; higher = faster cleavage; RNA array
Outline: (§1)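 Glucosamine-6-phosphate in HEPES/KCl/Mg(OAc)2 buffer, at 40 μM to 10 mM, was flowed over barcoded ribozyme variants transcribed in situ by E. coli RNA polymerase on sequenced MiSeq chips. Tracking was through a hybridised Cy3 probe at 37 °C. kobs, kcat and KM came from exponential decay fits and weighted Michaelis–Menten fits of normalised per-tile medians.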

glucosamine-6-phosphate [2] = variants of: B1; test: self-cleavage kobs at 640 uM GlcN6P; higher = faster cleavage; RNA array
Outline: as §1

glucosamine-6-phosphate [3] = variants of: B1; test: self-cleavage kobs at 2500 uM GlcN6P; higher = faster cleavage; RNA array
Outline: as §1

glucosamine-6-phosphate [4] = variants of: B1; test: self-cleavage kobs at 10000 uM GlcN6P; higher = faster cleavage; RNA array
Outline: as §1

Variant | self-cleavage kobs at 160 uM GlcN6P (glucosamine-6-phosphate [1]) [s⁻¹] | self-cleavage kobs at 640 uM GlcN6P (glucosamine-6-phosphate [2]) [s⁻¹] | self-cleavage kobs at 2500 uM GlcN6P (glucosamine-6-phosphate [3]) [s⁻¹] | self-cleavage kobs at 10000 uM GlcN6P (glucosamine-6-phosphate [4]) [s⁻¹]
C16G G59C A64C | < 1e-05 |  |  | 
G13A A39G C68A | < 1e-05 |  |  | 
G9U G13C A42U | < 1e-05 | < 1e-05 | < 1e-05 | 
G35A U55C | < 1e-05 | < 1e-05 | < 1e-05 | < 1e-05
U31C G32C C70G | 0.000701 ± 0.0003 |  | 0.000104 ± 2.4e-05 | 
U31C C58A A64C | < 1e-05 |  | < 1e-05 | 
G9C G38C | < 1e-05 |  |  | 
G38A A39C G40U G43A U49G U54C | < 1e-05 | < 1e-05 | < 1e-05 | 
U45A A52U U65G | < 1e-05 | < 1e-05 |  | 
A33U C68G C71A | < 1e-05 | < 1e-05 |  | 
G35C A36U | < 1e-05 | < 1e-05 | < 1e-05 | < 1e-05
G40U G60A U65G | < 1e-05 | < 1e-05 | < 1e-05 | 
A14G U31G G41C | < 1e-05 | < 1e-05 |  | 6.26e-05 ± 2.5e-05
C50G U57G | 0.000283 ± 0.00012 |  |  | 
G13A G35A G41U C68U | < 1e-05 | < 1e-05 | < 1e-05 | 
U56A U69G | 5.23e-05 ± 1e-05 | 5.7e-05 ± 2e-05 | 0.000127 ± 4.2e-05 | 4.58e-05 ± 8.9e-06
C11G C67A C71G | 4.73e-05 ± 1.9e-05 | 0.000132 ± 3.5e-05 | 0.000135 ± 4.2e-05 | 
A14C A42C C70G | < 1e-05 |  |  | 
A64U C70A | < 1e-05 |  |  | < 1e-05
C10U G37A G63A | < 1e-05 | < 1e-05 | < 1e-05 | 
A12C A36G U69C | < 1e-05 |  |  | 
C8U G35U G62C | < 1e-05 | < 1e-05 | < 1e-05 | 
C10U G40U G66U C67U | < 1e-05 |  | < 1e-05 | 
U49A A52U U65A U69G | 7.53e-05 ± 2.4e-05 | 0.00031 ± 0.00012 |  | 
U45G U47G | 0.000328 ± 9.1e-05 | 0.00314 ± 0.00086 | 0.00347 ± 0.00055 | 

Variant | self-cleavage kobs at 160 uM GlcN6P (glucosamine-6-phosphate [1]) [s⁻¹] | self-cleavage kobs at 640 uM GlcN6P (glucosamine-6-phosphate [2]) [s⁻¹] | self-cleavage kobs at 2500 uM GlcN6P (glucosamine-6-phosphate [3]) [s⁻¹] | self-cleavage kobs at 10000 uM GlcN6P (glucosamine-6-phosphate [4]) [s⁻¹]
U31A C50G | 0.000119 ± 2.4e-05 | 0.000349 ± 0.00014 | 0.000577 ± 0.00022 | 
C8G G63A C70G | < 1e-05 | < 1e-05 | < 1e-05 | 
A14U A33C G59A | < 1e-05 | < 1e-05 | < 1e-05 | 
G9A U46G U57A | < 1e-05 | < 1e-05 | < 1e-05 | 
C10U G43C U47C A52C U65C G66A C70G | < 1e-05 | < 1e-05 |  | 
A14C G32U A52C | < 1e-05 | < 1e-05 | < 1e-05 | 
G7U G43U C68U | < 1e-05 | < 1e-05 | < 1e-05 | < 1e-05
A33G U45G U69A | < 1e-05 | < 1e-05 |  | 
G29C U31C A33C A36C A53U | < 1e-05 |  | < 1e-05 | 
C16U U47A A53G U54A | 0.00109 ± 0.00027 | 0.00231 ± 0.00054 | 0.00464 ± 0.00094 | 
C34A U49C | < 1e-05 | < 1e-05 | < 1e-05 | < 1e-05
A12U A14C C71U | 0.000143 ± 4.4e-05 |  | 0.00169 ± 0.00033 | 
A15G C58A C70U | 0.000138 ± 2.8e-05 | 8.95e-05 ± 1.1e-05 | 0.000182 ± 4.8e-05 | 0.000281 ± 5.3e-05
G7A G32U C34U | < 1e-05 |  |  | 
G9U G40U U46G G62C | < 1e-05 | < 1e-05 | < 1e-05 | 
G9A C34A G59C | < 1e-05 | < 1e-05 | < 1e-05 | 
U2C G9U U56A C71U | < 1e-05 | < 1e-05 |  | 
U30C G43C C68G | 7.51e-05 ± 2.2e-05 |  |  | 
U30A U54C C71U | 0.000251 ± 5.9e-05 | 0.00109 ± 0.00025 | 0.00391 ± 0.0014 | 
G13C A48G C71U | < 1e-05 |  |  | 
G9U A42G U46G | < 1e-05 | < 1e-05 |  | 
C16G G29C A33U A48C | < 1e-05 | < 1e-05 |  | 
C8G G37A | < 1e-05 | < 1e-05 | < 1e-05 | 
A12G G40U G62C | < 1e-05 | < 1e-05 | < 1e-05 | 
A15G U45A U56G A64C C70A | < 1e-05 | < 1e-05 | < 1e-05 | 

Reference: the supplement of paper PMC7125110
